Data on 2 molecules can be found in publication PMC10514999, “The PyPIF5-PymiR156a-PySPL9-PyMYB114/MYB10 module regulates light-induced anthocyanin biosynthesis in red pear”.

Substitutions are numbered along the chain they refer to.

Series [1] addresses T1, PyPIF5 (Pyrus (red pear; cultivar of the cloned …, UniProt A0A5N5GDZ9 1-552).
T1 sequence: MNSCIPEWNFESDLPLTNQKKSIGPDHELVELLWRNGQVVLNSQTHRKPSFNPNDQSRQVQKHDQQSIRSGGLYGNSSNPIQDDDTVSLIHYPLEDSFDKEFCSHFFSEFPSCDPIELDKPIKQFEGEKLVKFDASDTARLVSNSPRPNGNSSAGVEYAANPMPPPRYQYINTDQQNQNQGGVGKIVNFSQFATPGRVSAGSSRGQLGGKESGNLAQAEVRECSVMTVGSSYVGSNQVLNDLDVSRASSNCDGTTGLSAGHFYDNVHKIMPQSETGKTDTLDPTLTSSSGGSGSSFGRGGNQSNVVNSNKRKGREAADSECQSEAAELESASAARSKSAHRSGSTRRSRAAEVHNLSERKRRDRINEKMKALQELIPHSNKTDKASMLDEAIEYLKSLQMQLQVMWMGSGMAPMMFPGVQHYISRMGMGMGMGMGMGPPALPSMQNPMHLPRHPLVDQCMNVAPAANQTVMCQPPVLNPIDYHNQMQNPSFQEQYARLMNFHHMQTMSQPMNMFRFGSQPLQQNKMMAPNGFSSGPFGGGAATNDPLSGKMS
Nature of the series: competition; unlabeled competitor of N1; binding gradually reduced; EMSA: 500 ng PyPIF5-His, 20 nM biotin probe, 20 uL with 4 uL 5x EMSA/Gel-Shift buffer (Beyotime GS009), 20 min, room temperature (~25 C); salt and pH not stated. The settings on record: protein: recombinant; tags: His (pColdTF vector); chain copies: 2; as N1, 37/36 nt as printed.

The target of series [2] is T1, PyPIF5. Nature of the series: EMSA; mutant probe, G-box destroyed; Methods also describe it as a competitor; EMSA: 500 ng PyPIF5-His, 20 nM biotin probe, 20 uL with 4 uL 5x EMSA/Gel-Shift buffer (Beyotime GS009), 20 min, room temperature (~25 C); salt and pH not stated. The settings on record: protein: recombinant; tags: His (pColdTF vector); chain copies: 2; label: biotin; blunt.

B1: Cold-probe (dsDNA)
DNA 1: TTGTAAAGAACACGTACGTTACACGTACGCTGAAACA
DNA 2: TGTTTCAGCGTAGTGTAACGTACGTGTTCTTTACAA
B1: in the series with PyPIF5 [1], the binding result is listed as “binds”.

B2: Bio-Mut-probe (dsDNA)
DNA 1: TTGTAAAGAACAGATACGTTACACTACGCTGAAACA
DNA 2: B1 DNA 2 with C23T, G24C
Turning to B2, the binding result with PyPIF5 [2] was “no binding”.
